From PMC9621272

Columns and labels:
[1] = biological target: Trypsin (UniProt P00760)
[2] = biological target: Trypsin (UniProt P00760); remark: listed apart in the source

UniProt P00760, sequence (P00760 18-246): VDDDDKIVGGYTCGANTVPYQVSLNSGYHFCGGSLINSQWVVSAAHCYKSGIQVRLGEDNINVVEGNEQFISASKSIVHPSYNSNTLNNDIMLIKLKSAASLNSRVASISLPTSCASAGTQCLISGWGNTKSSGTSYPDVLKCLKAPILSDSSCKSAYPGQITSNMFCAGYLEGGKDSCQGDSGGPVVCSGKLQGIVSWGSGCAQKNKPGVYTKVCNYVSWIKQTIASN

antitrypsin activity (%) of the eluate from Trypsin-Sepharose [1]: 97%
antitrypsin activity (%), substrate BApNa 1.25 mM, TTI 0.7 mg/mL after the gastric phase of simulated digestion (TTI remained intact) [2]: 96.6%
antitrypsin activity (%), substrate BApNa 1.25 mM, TTI intact 0.7 mg/mL, no digestion [2]: 96.3%
Substance: trypsin inhibitor isolated from tamarind seeds (natural protein)
